One substance from US20060257366A1 can be followed below.

The target of this assay is CH-296 retronectin fragment (UniProt P02751). The experiment in a line: cell-based or functional assay.
Chain of UniProt P02751 (P02751 1361-2107): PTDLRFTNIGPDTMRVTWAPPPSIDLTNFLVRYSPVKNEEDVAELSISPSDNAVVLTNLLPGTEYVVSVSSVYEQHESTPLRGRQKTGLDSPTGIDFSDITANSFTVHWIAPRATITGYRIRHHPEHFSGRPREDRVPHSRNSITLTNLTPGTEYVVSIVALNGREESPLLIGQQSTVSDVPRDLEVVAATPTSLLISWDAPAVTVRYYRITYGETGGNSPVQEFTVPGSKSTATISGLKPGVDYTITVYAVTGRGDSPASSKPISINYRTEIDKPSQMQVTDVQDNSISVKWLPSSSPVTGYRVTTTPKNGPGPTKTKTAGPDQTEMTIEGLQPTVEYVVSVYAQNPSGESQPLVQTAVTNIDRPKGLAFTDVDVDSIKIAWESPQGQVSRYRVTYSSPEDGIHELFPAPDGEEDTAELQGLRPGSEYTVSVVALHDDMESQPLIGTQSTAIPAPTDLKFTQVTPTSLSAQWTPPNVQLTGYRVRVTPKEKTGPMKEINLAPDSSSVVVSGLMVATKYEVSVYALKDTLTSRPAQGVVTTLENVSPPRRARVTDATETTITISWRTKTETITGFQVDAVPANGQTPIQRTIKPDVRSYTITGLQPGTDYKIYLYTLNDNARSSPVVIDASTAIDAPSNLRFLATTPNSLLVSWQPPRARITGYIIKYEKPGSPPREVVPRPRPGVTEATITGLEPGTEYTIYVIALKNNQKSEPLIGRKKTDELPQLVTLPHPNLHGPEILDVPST

Substance RD114/TR chimeric glycoprotein displayed a transduction efficiency of human CD34+ cells on retronectin-coated plates (% GFP+ cells) of 10 fold.
